Positions count from the first letter of the chain named. Names and notes keep the numbering of the source.
B1: Anti-idiotypic IgG 4.24.72 (parental chimeric antibody) (antibody, V domains shown)
VH: QIQLVQSGPELKKPGETVKISCKASGYTVTDYSMNWVKQAPGKCLKWMGWINTETGEPRYTDDFKGRFAFSLETSASTAYLQINNLKNEDSATYFCAREGDYDVFDYWGHGTTLKVSS
VL: DIVLTQSPASLAVSLGQRATISCRASKSVSTSSYSYMHWYQQKPGQPPKLLIKYVSYLESGVPARFSGSGSGTDFTLNIHPVEEEDAATYYCQHSREFPYTFGCGTKLEIK
notes: Tested as chimeric IgG; also called ID_4.24.72
B2: Anti-CD3 antibody clone P035.093 in monovalent human IgG1 format (antibody, V domains shown)
VH: EVQLLESGGGLVQPGGSLRLSCAASGFTFSSYAMNWVRQAPGKGLEWVSRIRSKYNNYATYYADSVKGRFTISRDDSKNTLYLQMNSLRAEDTAVYYCVRASNFPASYVSYFAYWGQGTLVTVSS
VL: QAVVTQEPSLTVSPGGTVTLTCGSSTGAVTTSNYANWVQEKPGQAFRGLIGGTNKRAPGTPARFSGSLLGGKAALTLSGAQPEDEAEYYCALWYSNLWVFGGGTKLTVL
notes: Monovalent human IgG1 with crossed VH and VL domains; knob-into-hole; P329G L234A L235A; also called P035.093 (monovalent IgG)
B3: CD3orig in monovalent human IgG1 format (antibody, V domains shown)
VH: not shown
VL: B2 VL
notes: Monovalent human IgG1 with crossed VH and VL domains; knob-into-hole; P329G L234A L235A; also called CD3orig (monovalent IgG)
B4: Anti-CD3 antibody clone P033.078 in monovalent human IgG1 format (antibody, V domains shown)
VH: B2 VH with S30E, N57E, A106S, Y108F, A113G
VL: B2 VL
notes: knob-into-hole; P329G L234A L235A; also called P033.078 (monovalent IgG)
B5: TYRP1 TCB containing optimized anti-CD3 antibody clone P035.093 (bispecific antibody, human IgG1, kappa, L234A L235A)
heavy 1: not shown
heavy 2: QVQLVQSGAEVKKPGASVKVSCKASGFNIKDYFLHWVRQAPGQGLEWMGWINPDNGNTVYAQKFQGRVTMTADTSTSTVYMELSSLRSEDTAVYYCTRRDYTYEKAALDYWGQGTLVTVSSASTKGPSVFPLAPSSKSTSGGTAALGCLVEDYFPEPVTVSWNSGALTSGVHTFPAVLQSSGLYSLSSVVTVPSSSLGTQTYICNVNHKPSNTKVDEKVEPKSCDKTHTCPPCPAPEAAGGPSVFLFPPKPKDTLMISRTPEVTCVVVDVSHEDPEVKFNWYVDGVEVHNAKTKPREEQYNSTYRVVSVLTVLHQDWLNGKEYKCKVSNKALGAPIEKTISKAKGQPREPQVCTLPPSRDELTKNQVSLSCAVKGFYPSDIAVEWESNGQPENNYKTTPPVLDSDGSFFLVSKLTVDKSRWQQGNVFSCSVMHEALHNHYTQKSLSLSP
light 1: DIQMTQSPSSLSASVGDRVTITCRASGNIYNYLAWYQQKPGKVPKLLIYDAKTLADGVPSRFSGSGSGTDFTLTISSLQPEDVATYYCQHFWSLPFTFGQGTKLEIKRTVAAPSVFIFPPSDRKLKSGTASVVCLLNNFYPREAKVQWKVDNALQSGNSQESVTEQDSKDSTYSLSSTLTLSKADYEKHKVYACEVTHQGLSSPVTKSFNRGEC
light 2: EVQLLESGGGLVQPGGSLRLSCAASGFTFSSYAMNWVRQAPGKGLEWVSRIRSKYNNYATYYADSVKGRFTISRDDSKNTLYLQMNSLRAEDTAVYYCVRASNFPASYVSYFAYWGQGTLVTVSSASVAAPSVFIFPPSDEQLKSGTASVVCLLNNFYPREAKVQWKVDNALQSGNSQESVTEQDSKDSTYSLSSTLTLSKADYEKHKVYACEVTHQGLSSPVTKSFNRGEC
notes: 2+1 IgG CrossFab, inverted, with charge modifications; knob-into-hole, P329G L234A L235A; also called CD3opt (P035.093); CD3 P035.093

What was measured:
FOLR1 CD3 TCB P035.093 [1] = target: T1, FOLR1 CD3 TCB P035.093; assay: SPR, Biacore T200, 37 °C; FOLR1 CD3 TCB P035.093 captured on FOLR1-Fc (C1 chip), anti-idiotypic antibody as analyte; n=5; Stdev 140 s
T1 construct: Classical 2+1 TCB, knob-into-hole, PGLALA; the common light chain pairs with each of the Fabs; also called FOLR1 TCB CD3: P035.093
Protocol: (§1) Briefly, FOLR1-Fc was immobilized on a series s sensor chip C1 using standard amine coupling chemistry according to the manufacturer's instructions. […] The first flow cell was kept as mock surface. […] Dissociation was monitored for 300 s, the flow rate was set to 30 μl/min. The surface was regenerated by injecting 10 mM Glycine pH 2.0 for 60 s, followed by injecting 5 mM NaOH for 60 s at a flow rate of 5 μl/min. Bulk refractive index differences were corrected by subtracting the response obtained from flow cell one (mock surface) as well as by substracting buffer injections (double referencing). The derived curves were fitted to a 1:1 Langmuir binding model using the BIAevaluation software (GE Healthcare). […] All experiments were performed at 37° C. using HBS-N (10 mM HEPES, 150 mM NaCl pH 7.4, 0.05% Surfactant P-20).

[2] = target: TYRP1 TCB with CD3 binder CH2527; assay: cell-based or functional assay
[3] = target: B5; assay: cell-based or functional assay
[4] = target: T2, TCB with CD3 binding Fab CH2527 (analyte of Table 9); assay: SPR, Biacore T200; anti-idiotypic IgG amine-coupled on CM5 chip, TCB as analyte; 1:1 Langmuir fit; single dilution series
T2 construct: also called CD3 CH2527; not shown: Target-cell arm (TYRP1 or FOLR1 16D5), constant regions and Fc
Protocol: (§2) SPR experiments were performed on a Biacore T200 with HBS-EP+ as running buffer (0.01 M HEPES pH 7.4, 0.15 M NaCl, 0.005% Surfactant P20 (BR-1006-69, GE Healthcare)). Three anti-idiotypic antibodies were directly immobilized by amine coupling on a CMS chip (GE Healthcare). A three-fold dilution series of the different T cell bispecifics (TCBs) was passed 20 over the ligand at 30 μl/min for 180 sec to record the association phase. The dissociation phase was monitored for 600 s and triggered by switching from the sample solution to HBS-EP+. The chip surface was regenerated after every cycle using one injection of 10 mM glycine pH 2.1 for 60 sec, followed by two injections of 30 sec. Bulk refractive index differences were corrected for by subtracting the response obtained on the reference flow cell 1. The affinity constants were derived from the kinetic rate constants by fitting to a 1:1 Langmuir binding using the Biaeval 5 software (GE Healthcare). The measure was performed with a single dilution series.
(§3) SPR analysis was evaluated with masks as IgGs (immobilized on CM5 chip) and TCBs with different CD3 binding Fabs as analytes.

[5] = target: T3, TCB with CD3 binding Fab P035.093 (analyte of Table 9); assay: as above
T3 construct: not shown: Target-cell arm (TYRP1 or FOLR1 16D5), constant regions and Fc
Protocol: as §2, §3

FOLR1 CD3 TCB P035.093 [6] = target: T1, FOLR1 CD3 TCB P035.093; assay: SPR, Biacore T200, 37 °C; FOLR1 CD3 TCB P035.093 captured on FOLR1-Fc (C1 chip), anti-idiotypic antibody 1.2-100 nM as analyte; 1:1 Langmuir fit; n=5; Stdev 0.4 nM
Protocol: as §1

[7] = target: T4, Cynomolgus CD3ε stalk-Fc(knob)-Avi/CD3δ stalk-Fc(hole) (cynomolgus); assay: SPR, Biacore T200, 25 °C; monovalent IgG captured by anti-PG antibody on C1 chip, CD3ε/δ-Fc as analyte; triplicates
T4 construct: Heterodimeric Fc fusion; also called cynomolgus CD3ε/δ
T4 sequence (chain, as listed by the source mutant limits assumed, chain 1 of 2): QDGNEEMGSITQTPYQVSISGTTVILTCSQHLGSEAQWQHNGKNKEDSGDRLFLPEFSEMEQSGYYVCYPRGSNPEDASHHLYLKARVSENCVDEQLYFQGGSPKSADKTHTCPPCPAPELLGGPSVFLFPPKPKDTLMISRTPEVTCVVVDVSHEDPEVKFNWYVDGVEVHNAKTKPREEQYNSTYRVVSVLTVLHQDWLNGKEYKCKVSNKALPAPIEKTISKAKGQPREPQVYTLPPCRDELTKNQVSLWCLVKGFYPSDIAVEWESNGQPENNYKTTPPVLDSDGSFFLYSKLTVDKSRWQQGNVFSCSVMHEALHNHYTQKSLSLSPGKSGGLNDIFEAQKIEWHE
T4 sequence (chain, as listed by the source mutant limits assumed, chain 2 of 2): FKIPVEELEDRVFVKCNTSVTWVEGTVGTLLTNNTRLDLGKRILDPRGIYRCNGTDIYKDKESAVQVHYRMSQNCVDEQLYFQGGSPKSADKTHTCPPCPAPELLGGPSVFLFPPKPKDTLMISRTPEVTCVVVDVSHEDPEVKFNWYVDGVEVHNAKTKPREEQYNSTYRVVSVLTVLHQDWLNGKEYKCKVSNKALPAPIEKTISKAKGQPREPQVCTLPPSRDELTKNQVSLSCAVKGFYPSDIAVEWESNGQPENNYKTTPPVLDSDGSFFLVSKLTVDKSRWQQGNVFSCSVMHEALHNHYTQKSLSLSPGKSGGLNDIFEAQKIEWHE
Protocol: (§4) Kinetic constants were derived using the Biacore T200 Evaluation Software (GE Healthcare Life Sciences), to fit rate equations for 1:1 Langmuir binding by numerical integration. The half-life (t_{1/2}) of the interaction was calculated using the formula t_{1/2}=ln 2/koff.
(§5) To analyze the interaction to CD3, IgG molecules were captured for 240 s at 50 nM with a flow rate of 5 μl/min. Human and cynomolgus CD3ε stalk-Fc(knob)-Avi/CD3δ-stalk-Fc(hole) were passed at a concentration of 0.061-250 nM with a flow rate of 30 μl/min through the flow cells for 300 s. The dissociation was monitored for 800 s.

[8] = target: T5, Human CD3ε stalk-Fc(knob)-Avi/CD3δ stalk-Fc(hole) (human); assay: as above
T5 construct: Heterodimeric Fc fusion; also called human CD3ε/δ; Human CD3 epsilon stalk-Fc(knob)-Avi
Protocol: as §4, §5

[9] = target: T5, Human CD3ε stalk-Fc(knob)-Avi/CD3δ …; assay: SPR, biotinylated human CD3ε/δ on SA chip, monovalent IgG; response normalised to anti-huIgG capture and referenced to the unstressed sample; after 2 weeks at pH 6.0/40 °C
Protocol: (§6) All SPR experiments were performed on a Biacore T200 instrument (GE Healthcare) at 25° C. with HBS-P+ (10 mM HEPES, 150 mM NaCl pH 7.4, 0.05% Surfactant P20) as running and dilution buffer. Biotinylated human CD3ε/δ (see Example 3, SEQ ID NOs 41 and 42) as well as biotinylated anti-huIgG (Capture Select, Thermo Scientific, #7103262100) were immobilized on a Series S Sensor Chip SA (GE Healthcare, #29104992), resulting in surface densities of at least 1000 resonance units (RU). Anti-CD3 antibodies with a concentration of 2 μg/ml were injected for 30 s at a flow rate of 5 μl/min, and dissociation was monitored for 120 s. The surface was regenerated by injecting 10 mM glycine pH 1.5 for 60 s. Bulk refractive index differences were corrected by subtracting blank injections and by subtracting the response obtained from a blank control flow cell. For evaluation, the binding response 5 seconds after injection end was taken. To normalize the binding signal, the CD3 binding was divided by the anti-huIgG response (the signal (RU) obtained upon capture of the CD3 antibody on the immobilized anti-huIgG antibody). The relative binding activity was calculated by referencing each temperature stressed sample to the corresponding, non-stressed sample.

[10] = target: T4, Cynomolgus CD3ε stalk-Fc(knob)-Avi/CD3δ …; assay: SPR, Biacore T200, 25 °C; monovalent IgG captured by anti-PG antibody on C1 chip, CD3ε/δ-Fc as analyte; 1:1 Langmuir fit; triplicates
Protocol: as §4, §5

[11] = target: T5, Human CD3ε stalk-Fc(knob)-Avi/CD3δ …; assay: as above
Protocol: as §4, §5

[12] = target: T5, Human CD3ε stalk-Fc(knob)-Avi/CD3δ …; assay: SPR, biotinylated human CD3ε/δ on SA chip, monovalent IgG; response normalised to anti-huIgG capture and referenced to the unstressed sample; after 2 weeks at pH 7.4/37 °C
Protocol: as §6

[13] = target: T5, Human CD3ε stalk-Fc(knob)-Avi/CD3δ …; assay: SPR, monovalent IgG format
[14] = target: T5, Human CD3ε stalk-Fc(knob)-Avi/CD3δ …; assay: SPR, biotinylated human CD3ε/δ on SA chip, TCB at 2 µg/ml; response normalised to anti-huIgG capture and referenced to the unstressed sample; after 2 weeks at pH 6.0/40 °C
Protocol: (§7) In order to assess the effect of the deamidation site removal and its effect on the stability of the antibodies, the optimized anti-CD3 antibodies (in TCB format) were incubated for 14 days at 37° C., pH 7.4 and at 40° C., pH 6 and further analyzed by SPR for their binding capability to human CD3ε/δ. Samples stored at −80° C. pH 6 were used as reference. The reference samples and the samples stressed at 40° C. were in 20 mM His, 140 mM NaCl, pH 6.0, and the samples stressed at 37° C. in PBS, pH 7.4, all at a concentration of 1.0 mg/ml. After the stress period (14 days) samples in PBS were dialyzed back to 20 mM His, 140 mM NaCl, pH 6.0 for further analysis.
as §6

[15] = target: T5, Human CD3ε stalk-Fc(knob)-Avi/CD3δ …; assay: SPR, biotinylated human CD3ε/δ on SA chip, TCB at 2 µg/ml; response normalised to anti-huIgG capture and referenced to the unstressed sample; after 2 weeks at pH 7.4/37 °C
Protocol: as §7, §6

Binder	t1/2 [7]	t1/2 [8]	binding activity [%] [9]	Kd [10]	Kd [11]	binding activity [%] [12]	koff [11]	kon [11]	further results
B1									t1/2 diss (FOLR1 CD3 TCB P035.093 [1]): 7.43 min; IC50 (read off the curve): reduction of Jurkat NFAT luminescence by anti-ID 4.24.72 IgG, TYRP1 TCB (CH2527) at EC90 [2]: ~1 nM; IC50 (read off the curve): reduction of Jurkat NFAT luminescence by anti-ID 4.24.72 IgG, TYRP1 TCB (CD3 variant P035.093) at EC90 [3]: ~1 nM; Kd [4]: 4.7 nM; koff [4]: 0.000675 s⁻¹; kon [4]: 141000 M⁻¹ s⁻¹; Kd [5]: 2.1 nM; koff [5]: 0.000309 s⁻¹; kon [5]: 148000 M⁻¹ s⁻¹; Kd (FOLR1 CD3 TCB P035.093 [6]): 1.5 nM
B2	11.8 min	8.25 min	100%	0.224 nM	0.456 nM				
B3		3.98 min	97%		4.94 nM	60%	0.0029 s⁻¹	587000 M⁻¹ s⁻¹	
B4	11.1 min	8.69 min	98%	0.403 nM	0.771 nM	95%	0.00133 s⁻¹	1.73e+06 M⁻¹ s⁻¹	koff [10]: 0.00104 s⁻¹; kon [10]: 2.6e+06 M⁻¹ s⁻¹; fold of binding half-life over CD3orig [13]: > 2 fold
B5									binding activity [%] [14]: 97%; binding activity [%] [15]: 95%
